From patent US20230057987A1 (published 2023)
Several values for one entry are separate records, joined by “and”; a condition that tells them apart may be missing. Equal values may be shown once.

T1: similar peptide SP-05-0002, source protein not stated peptide on HLA-A*02:01 (human)
T1 peptide: KIFSGLLKV

T2: similar peptide SP-05-0003, source protein not stated peptide on HLA-A*02:01 (human)
T2 peptide: KVTEMLVNV

T3: similar peptide SP-05-0004, source protein not stated peptide on HLA-A*02:01 (human)
T3 peptide: KIWEWLVGV

T4: similar peptide SP-05-0005, source protein not stated peptide on HLA-A*02:01 (human)
T4 peptide: KIEEFLEAV

T5: similar peptide SP-05-0006, source protein not stated peptide on HLA-A*02:01 (human)
T5 peptide: KIAELLENV

T6: similar peptide SP-05-0007, source protein not stated peptide on HLA-A*02:01 (human)
T6 peptide: KIFPALCTV

T7: similar peptide SP-05-0008, source protein not stated peptide on HLA-A*02:01 (human)
T7 peptide: KILDELEKV

T8: similar peptide SP-05-0009, source protein not stated peptide on HLA-A*02:01 (human)
T8 peptide: KIIDLLPKV

T9: similar peptide SP-05-0010, source protein not stated peptide on HLA-A*02:01 (human)
T9 peptide: RIFETVNSV

T10: CT45-IP alanine variant, position 3 peptide on HLA-A*02:01 (human)
T10 peptide: KIAEMLEGV

T11: CT45-IP alanine variant, position 5 peptide on HLA-A*02:01 (human)
T11 peptide: KIFEALEGV

T12: CT45-IP alanine variant, position 8 peptide on HLA-A*02:01 (human)
T12 peptide: KIFEMLEAV

T13: similar peptide SP-05-0001, source protein not stated peptide on HLA-A*02:01 (human)
T13 peptide: HIMEHLEGV

T14: CT45 (CT45A1, A2, A3, A5 to A10); CT45-IP peptide on HLA-A*02:01 (human)
T14 peptide: KIFEMLEGV

T15: CT45-IP alanine variant, position 7 peptide on HLA-A*02:01 (human)
T15 peptide: KIFEMLAGV

T16: CT45-IP alanine variant, position 1 peptide on HLA-A*02:01 (human)
T16 peptide: AIFEMLEGV

T17: CT45-IP alanine variant, position 4 peptide on HLA-A*02:01 (human)
T17 peptide: KIFAMLEGV


Experiments:
[1] = molecular target: CT45-IP antigenic peptide (…) in complex with HLA-A*02 presented on cells (peptide-loaded T2 cells; NCIH1703 and A375 tumor cells) (human); experiment: cell-based or functional assay
[2] = molecular target: T1, similar peptide SP-05-0002, source …; experiment: killing
[3] = molecular target: T2, similar peptide SP-05-0003, source …; experiment: killing
[4] = molecular target: T3, similar peptide SP-05-0004, source …; experiment: killing
[5] = molecular target: T4, similar peptide SP-05-0005, source …; experiment: killing
[6] = molecular target: T5, similar peptide SP-05-0006, source …; experiment: killing
[7] = molecular target: T6, similar peptide SP-05-0007, source …; experiment: killing
[8] = molecular target: T7, similar peptide SP-05-0008, source …; experiment: killing
[9] = molecular target: T8, similar peptide SP-05-0009, source …; experiment: killing
[10] = molecular target: T9, similar peptide SP-05-0010, source …; experiment: killing
[11] = molecular target: T10, CT45-IP alanine variant, position 3 …; experiment: killing
[12] = molecular target: T11, CT45-IP alanine variant, position 5 …; experiment: killing
[13] = molecular target: T12, CT45-IP alanine variant, position 8 …; experiment: killing
[14] = molecular target: T13, similar peptide SP-05-0001, source …; experiment: killing
[15] = molecular target: CT45-IP-HLA-A*02 dextramer (human); experiment: flow cytometry, dextramer staining of TCR-mRNA electroporated T cells, gated on CD3+
[16] = molecular target: T14, CT45 (CT45A1, A2, A3, A5 to A10); …; experiment: luciferase release, 24 h, 1:1; CD8+ T cells with TCR mRNA, T2 cells with titrated peptide; full-length, on cells
[17] = molecular target: T14, CT45 (CT45A1, A2, A3, A5 to A10); …; experiment: CT45-IP-HLA-A*02 dextramer on T cells with TCR mRNA; TCR found by tetramer sorting; full-length, on cells
[18] = molecular target: T15, CT45-IP alanine variant, position 7 …; experiment: killing
[19] = molecular target: T16, CT45-IP alanine variant, position 1 …; experiment: killing
[20] = molecular target: T17, CT45-IP alanine variant, position 4 …; experiment: killing

| surface expression, % positive events by CT45-IP-HLA-A2*02 dextramer staining [15] | EC50 of peptide [16] [nM] | dextramer-positive events [17] [%] | Binder | EC50, half maximal killing capacity (functional avidity; CT45-IP peptide titration on T2 cells, luciferase release) [1] [nM] | binding result [2] | binding result [3] | binding result [4] | binding result [5] | binding result [6] | binding result [7] | binding result [8] | binding result [9] | binding result [10] | binding result [11] | binding result [12] | binding result [13] | binding result [14] | binding result [18] | binding result [19] | binding result [20] |
| --- | --- | --- | --- | --- | --- | --- | --- | --- | --- | --- | --- | --- | --- | --- | --- | --- | --- | --- | --- | --- |
| 53.3% | 0.48 | 53.3 | TCR-7 (TCR, V domains shown) Valpha: QTVTQSQPEMSVQEAETVTLSCTYDTSESDYYLFWYKQPPSRQMILVIRQEAYKQQNATENRFSVNFQKAAKSFSLKISDSQLGDAAMYFCTFRYGGATNKLIFGTGTLLAVQP Vbeta: GVIQSPRHLIKEKRETATLKCYPIPRHDTVYWYQQGPGQDPQFLISFYEKMQSDKGSIPDRFSAQQFSDYHSELNMSSLELGDSALYFCASRGGWAETPDTQYFGPGTRLTVL | 0.48 | no recognition | no recognition | no recognition | no recognition | no recognition | no recognition | no recognition | no recognition | no recognition | recognises | recognises | recognises | no recognition |  |  |  |
| 0.53% and 6.6% | 59.5 | 6.6 | TCR-11 (TCR, V domains shown) Valpha: IQVEQSPPDLILQEGANSTLRCNFSDSVNNLQWFHQNPWGQLINLFYIPSGTKQNGRLSATTVATERYSLLYISSSQTTDSGVYFCAVNTGTASKLTFGTGTRLQVTL Vbeta: GVTQTPKFQVLKTGQSMTLQCAQDMNHNSMYWYRQDPGMGLRLIYYSASEGTTDKGEVPNGYNVSRLNKREFSLRLESAAPSQTSVYFCASSPRGQGRSYEQYFGPGTRLTVT | 59.5 | no recognition | no recognition | no recognition | no recognition | no recognition | no recognition | no recognition | no recognition | no recognition |  |  |  | no recognition | recognises |  |  |
| 2.9% | 3.25 | 2.9 | TCR-6 (TCR, V domains shown) Valpha: QKEVEQDPGPLSVPEGAIVSLNCTYSNSAFQYFMWYRQYSRKGPELLMYTYSSGNKEDGRFTAQVDKSSKYISLFIRDSQPSDSATYLCAMSGNSGARDYGNNRLAFGKGNQVVVIP Vbeta: EVTQTPKHLVMGMTNKKSLKCEQHMGHRAMYWYKQKAKKPPELMFVYSYEKLSINESVPSRFSPECPNSSLLNLHLHALQPEDSALYLCASATWEEAGPYNEQFFGPGTRLTVL | 3.25 | no recognition | no recognition |  | no recognition | no recognition | no recognition | no recognition | no recognition | no recognition |  | recognises | recognises | no recognition | recognises |  |  |
| 55.5% and 61.1% | 1.32 | 61.1 | TCR-5 (TCR, V domains shown) Valpha: QQLNQSPQSMFIQEGEDVSMNCTSSSIFNTWLWYKQDPGEGPVLLIALYKAGELTSNGRLTAQFGITRKDSFLNISASIPSDVGIYFCAGGYNYGQNFVFGPGTRLSVLP Vbeta: GVTQTPKHLITATGQRVTLRCSPRSGDLSVYWYQQSLDQGLQFLIQYYNGEERAKGNILERFSAQQFPDLHSELNLSSLELGDSALYFCASSAGLAGGYEQYFGPGTRLTVT | 1.32 | no recognition | no recognition | no recognition | no recognition | no recognition | no recognition | no recognition | no recognition | no recognition |  | recognises |  | no recognition |  | recognises | recognises |

Further lines, the binder ahead of its results:

| Binder | surface expression, % positive events by CT45-IP-HLA-A2*02 dextramer staining [15] | EC50 of peptide [16] [nM] | dextramer-positive events [17] [%] | EC50, half maximal killing capacity (functional avidity; CT45-IP peptide titration on T2 cells, luciferase release) [1] [nM] | binding result [2] | binding result [3] | binding result [4] | binding result [5] | binding result [6] | binding result [7] | binding result [8] | binding result [9] | binding result [10] | binding result [11] | binding result [12] | binding result [13] | binding result [14] | binding result [18] | binding result [19] | binding result [20] |
| --- | --- | --- | --- | --- | --- | --- | --- | --- | --- | --- | --- | --- | --- | --- | --- | --- | --- | --- | --- | --- |
| TCR-4 (TCR, V domains shown) Valpha: QSVAQPEDQVNVAEGNPLTVKCTYSVSGNPYLFWYVQYPNRGLQFLLKYITGDNLVKGSYGFEAEFNKSQTSFHLKKPSALVSDSALYFCAAPRDDKIIFGKGTRLHILP Vbeta: GVTQTPKFRVLKTGQSMTLLCAQDMNHEYMYWYRQDPGMGLRLIHYSVGEGTTAKGEVPDGYNVSRLKKQNFLLGLESAAPSQTSVYFCASSYLRTGGNEQFFGPGTRLTVL | 39.1% | 1.31 | 39.1 | 1.31 | no recognition | no recognition | no recognition | no recognition | no recognition | no recognition | no recognition | no recognition | no recognition |  | recognises |  | no recognition |  | recognises |  |
| TCR-12 (TCR, V domains shown) Valpha: QLLEQSPQFLSIQEGENLTVYCNSSSVFSSLQWYRQEPGEGPVLLVTVVTGGEVKKLKRLTFQFGDARKDSSLHITAAQPGDTGLYLCAGGLSDSYDKVIFGPGTSLSVIP Vbeta: EVTQTPKHLVMGMTNKKSLKCEQHMGHRAMYWYKQKAKKPPELMFVYSYEKLSINESVPSRFSPECPNSSLLNLHLHALQPEDSALYLCASSQGVGQEYGYTFGSGTRLTVV | 20.1% | 47.5 | 20.1 | 47.5 | no recognition | no recognition | no recognition | no recognition | no recognition | no recognition | no recognition | no recognition | no recognition |  | recognises | recognises | no recognition |  | recognises |  |
